The record followed here is patent publication US20240368289A1 (LAEKNA THERAPEUTICS SHANGHAI, published 2024).

By Kd is commonly meant the constant that tells how readily two partners part at equilibrium. Usually koff stands for the first-order rate constant of dissociation. For orientation: kon means a measure of how fast the partners come together. As a reminder, the IC50 is the midpoint of a concentration-inhibition curve. A high value points to weaker potency.

Substitutions are numbered along the chain they refer to.

Sequences and labels used below:
B1: hit 275 (IgG) (antibody, V domains shown)
VH: QVQLVQSGAEVKKPGSSVKVSCKASGFQFRTSLISWVRQAPGQGLEWMGGLIPIFGTANYAQKFQGRVTITADESTSTAYMELSSLRSEDTAVYYCVKDLTWTNLGLDIWGQGTMVTVSS
VL: EIVMTQSPSSLSASVGDTVTITCRASQGPSRWLAWYQQKPGKAPRLLIYAASSLHSGVPSRFSGSGSGTHFTLTISSLQPEDFATYFCQQSYSTPFTFGPGTKLEIK
notes: IgG: human IgG1 / kappa from pFUSE vectors, made in 293F cells
B2: hit 21366 (IgG) (antibody, V domains shown)
VH: B1 VH with F27P, Q28R, R30Q, T31D, S32L, L33S, L51I, F55Y
VL: B1 VL with P29V, A50W, S52A, S53H, H55Q
notes: as for B1
B3: hit 21341 (LA01) (IgG) (antibody, V domains shown)
VH: B1 VH with F27P, Q28R, R30Q, T31D, S32L, L33S, L51I, F55Y
VL: B1 VL with P29V, A50S, S52R, S53A
notes: IgG: human IgG1 / kappa from pFUSE vectors, made in 293F cells; also called ACVR2A Ab LA01
B4: hit 21169 (IgG) (antibody, V domains shown)
VH: B1 VH
VL: B1 VL with P29V, S52Q, S53G, H55S
notes: as for B1
B5: hit 21155 (IgG) (antibody, V domains shown)
VH: B1 VH
VL: B1 VL with P29V, A50G, S53P, H55S
notes: as for B1
B6: IgG 6401 (CDR shuffling) (antibody, V domains shown)
VH: B1 VH with F27P, Q28R, R30Q, T31D, S32L, L33S, L51I, F55Y
VL: B1 VL with A50S, S52R, S53A
notes: as for B1
B7: IgG 3352 (CDR shuffling) (antibody, V domains shown)
VH: B1 VH
VL: B1 VL with S52Q, S53G, H55S
notes: as for B1
B8: hit 21343 (IgG) (antibody, V domains shown)
VH: B1 VH with F27P, Q28R, R30Q, T31D, S32L, L33S, L51I, F55Y
VL: B1 VL with P29V, A50N, S52R, H55F
notes: as for B1
B9: clone D (Fab) (Fab, V domains shown)
VH: QVQLVQSGAEVKKPGSSVKVSCKASGQFYHSRISWVRQAPGQGLEWMGGLIPIFGTANYAQKFQGRVTITADESTSTAYMELSSLRSEDTAVYYCVKDLTWTNLGLDIWGQGTMVTVSS
VL: B1 VL with G28S, P29I, S30G, Q90E, T94N, F96Y
notes: Fab made in E. coli TG1 and purified on Ni-NTA
B10: clone E (Fab) (Fab, V domains shown)
VH: B1 VH
VL: B1 VL with G28S, P29I, S30G, Q90E, T94N, F96Y
notes: as for B9
B11: clone F (Fab) (Fab, V domains shown)
VH: B1 VH with F27R, Q28E, R30E, T31S, S32L, L33F
VL: B1 VL with G28S, P29I, S30G, Q90E, T94N, F96Y
notes: as for B9
B12: clone B (Fab) (Fab, V domains shown)
VH: B1 VH with L51I, F55Y
VL: B1 VL with P29V
notes: as for B9
B13: clone K (Fab) (Fab, V domains shown)
VH: B1 VH with F27M, Q28P, R30Q, T31Q, L33Q, L51I, F55Y
VL: B1 VL with P29V
notes: as for B9
B14: clone H (Fab) (Fab, V domains shown)
VH: B1 VH with F27L, Q28G, R30H, T31N, S32F, L33Q, L51I, F55Y
VL: B1 VL with P29V
notes: as for B9
B15: clone G (Fab) (Fab, V domains shown)
VH: B1 VH with F27R, Q28H, R30G, T31S, S32L, L33Q, L51I, F55Y
VL: B1 VL with P29V
notes: as for B9
B16: clone C (Fab) (Fab, V domains shown)
VH: B1 VH with F27R, Q28E, R30E, T31S, S32L, L33F, L51I, F55Y
VL: B1 VL with P29V
notes: as for B9
B17: clone I (Fab) (Fab, V domains shown)
VH: B1 VH with F27E, Q28S, R30E, T31H, S32F, L33Q, L51I, F55Y
VL: B1 VL with P29V
notes: as for B9
B18: hit J (IgG) (antibody, V domains shown)
VH: B1 VH with F27P, Q28R, R30Q, T31D, S32L, L33S, L51I, F55Y
VL: B1 VL with P29V
notes: IgG: VH and VL cloned into pFUSEss-CHIg-hG1 (human IgG1 heavy) and pFUSE2ss-CLIg-hk (human kappa), made in 293F cells; also called parental clone "J"

One assay deals with T1, recombinant protein comprising the human ACVR2A extracellular domain (ECD) fused to the human IgG1 Fc region (human, UniProt P27037 20-135).
T1 construct: extracellular domain; also called ACVR2A-Fc; ACVR2A-FC; not shown: human IgG1 Fc region
T1 sequence (P27037 20-135): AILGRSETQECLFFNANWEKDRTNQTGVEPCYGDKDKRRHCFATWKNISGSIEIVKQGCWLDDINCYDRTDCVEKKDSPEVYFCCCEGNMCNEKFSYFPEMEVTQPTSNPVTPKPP
The assay is described as follows: SPR, Biacore; format and antigen construct not given.
For B1, the Kd came out at 0.872 nM, the koff came to 0.000319 s⁻¹ and the kon came out at 366000 M⁻¹ s⁻¹.
In the same order, the values of B2 are 0.153 nM, 7.91e-06 s⁻¹ and 51600 M⁻¹ s⁻¹.
In the same order, the values of B3 are 0.172 nM, 5.44e-05 s⁻¹ and 316000 M⁻¹ s⁻¹.
The corresponding values for B4 are 0.663 nM, 0.000238 s⁻¹ and 359000 M⁻¹ s⁻¹.
On to B5, for which the Kd stood at 0.211 nM, the koff came out at 8.07e-05 s⁻¹ and the kon is 382000 M⁻¹ s⁻¹.
The corresponding values for B6 are 0.865 nM, 0.000135 s⁻¹ and 156000 M⁻¹ s⁻¹.
Turning to B7, the Kd amounted to 0.584 nM, the koff was determined as 9.41e-05 s⁻¹ and the kon amounted to 161000 M⁻¹ s⁻¹.
In the same order, the values of B8 are 0.43 nM, 4.51e-05 s⁻¹ and 105000 M⁻¹ s⁻¹.

For a further assay, the target named is T1, recombinant protein comprising the …. Nature of the assay: SPR, Biacore 8000 (2nd test); ACVR2A-Fc captured by anti-human Fc, Fab injected. From the text:
(§1) 2.2 Surface Plasmon resonance (SPR) measurements and affinity analysis by anti-human Fc capture format. After affinity panning, output-3 (03) of CDRH1 library were screened for binding ability by Fab ELISA and followed by NGS DNA sequencing. Based on binding Elisa and sequence abundance from NGS data, 11 clones were select for SPR analysis. Approximately 100-800 resonance units (RU) of antigen ACVR2A, was captured by anti-human Fc immobilized on a channel of a CM5 chip with an activated amine group. After immobilization, Fab antibodies were injected into the channels at 25° C. in HBS-EP buffer, with a flow rate of 30 μL/min, 1 min. When the data collection was finished in each cycle, the sensor surface was regenerated using 80 mM NaOH with a flow rate of 30 μL/min, 15 sec and reused chip in next cycle. After subtraction of reference surface and buffer injection, curve was locally fitted with BIA evaluation version 4.1 using a 1:1 Langmuir binding mode.
(§2) The affinity of selected 11 anti-ACVR2A monoclonal antibody clones were determined on Biacore®3000 and Biacore®8000 as shown in Table 4 below.
Consider B9, for which the Kd worked out at 10.4 nM, the koff is 0.00285 s⁻¹ and the kon came to 273000 M⁻¹ s⁻¹.
Consider B10, for which the equilibrium dissociation constant (Kd) turned out to be 0.501 nM, the koff was determined as 0.000153 s⁻¹ and the kon worked out at 307000 M⁻¹ s⁻¹.
The corresponding values for B11 are 1.47 nM, 0.000331 s⁻¹ and 225000 M⁻¹ s⁻¹.
The corresponding values for B12 are 5.91 nM, 0.00253 s⁻¹ and 428000 M⁻¹ s⁻¹.
In the same order, the values of B13 are 0.212 nM, 0.000259 s⁻¹ and 1.22e+06 M⁻¹ s⁻¹.
In the case of B14, the dissociation constant (Kd) was determined as 1.38 nM, the koff worked out at 0.000901 s⁻¹ and the kon was 651000 M⁻¹ s⁻¹.
In the same order, the values of B15 are 0.443 nM, 0.000282 s⁻¹ and 637000 M⁻¹ s⁻¹.
For B16, the Kd is 3.08 nM, the koff was 0.000247 s⁻¹ and the kon was determined as 90300 M⁻¹ s⁻¹.
With B17, the Kd was 1.01 nM, the koff was 0.000379 s⁻¹ and the kon amounted to 374000 M⁻¹ s⁻¹.

The next assay deals with ACVR2A on HEK293T-B1 cells (ACVR2B knockout stable cell line) (UniProt P27037 20-513). The assay is described as follows: cell-based or functional assay.
Chain of ACVR2A on HEK293T-B1 cells (ACVR2B knockout stable cell line) (P27037 20-513): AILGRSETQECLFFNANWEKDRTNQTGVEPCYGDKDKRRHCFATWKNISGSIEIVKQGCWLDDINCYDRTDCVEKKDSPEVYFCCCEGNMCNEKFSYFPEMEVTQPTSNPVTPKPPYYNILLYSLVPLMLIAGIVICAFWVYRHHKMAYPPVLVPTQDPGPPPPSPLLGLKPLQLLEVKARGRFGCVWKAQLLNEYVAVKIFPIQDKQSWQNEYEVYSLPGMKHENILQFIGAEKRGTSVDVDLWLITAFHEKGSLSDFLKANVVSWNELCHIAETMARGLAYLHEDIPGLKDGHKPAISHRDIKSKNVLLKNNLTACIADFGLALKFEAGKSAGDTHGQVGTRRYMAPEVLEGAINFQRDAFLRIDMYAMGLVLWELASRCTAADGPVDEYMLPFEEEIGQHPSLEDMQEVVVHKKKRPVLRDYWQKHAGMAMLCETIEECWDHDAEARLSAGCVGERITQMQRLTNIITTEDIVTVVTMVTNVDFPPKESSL
Turning to B18, the “IC50 (M), HEK293T-B1 CAGA-Luc, Activin A” value is 5.12e-09 M and the “IC50 (M), HEK293T-B1 CAGA-Luc, GDF8” value is 2.06e-09 M.
In the same order, the values of B1 are 4.91e-09 M and 8.81e-10 M.
The corresponding values for B2 are 3.64e-09 M and 1.65e-09 M.
As for B3, the “IC50 (M), HEK293T-B1 CAGA-Luc, Activin A” value worked out at 6.24e-09 M and the “IC50 (M), HEK293T-B1 CAGA-Luc, GDF8” value worked out at 1.6e-09 M.
In the same order, the values of B4 are 2.66e-09 M and 4.99e-10 M.
In the same order, the values of B5 are 1.78e-09 M and 6.51e-10 M.
B6: the “IC50 (M), HEK293T-B1 CAGA-Luc, Activin A” value stood at 1.93e-09 M and the “IC50 (M), HEK293T-B1 CAGA-Luc, GDF8” value is 2.16e-09 M.
In the same order, the values of B7 are 2.28e-09 M and 3.51e-10 M.
In the same order, the values of B8 are 9.07e-09 M and 1.64e-09 M.

The target in the next assay is T1, recombinant protein comprising the …. The assay is described as follows: SPR, Biacore 3000 (1st test); ACVR2A-Fc captured by anti-human Fc, Fab injected.
Text: as §1, §2
B9: the Kd came to 12.8 nM, the koff came out at 0.00232 s⁻¹ and the kon was found to be 181000 M⁻¹ s⁻¹.
In the same order, the values of B10 are 0.664 nM, 0.00019 s⁻¹ and 285000 M⁻¹ s⁻¹.
B11: the Kd is 11.8 nM, the koff amounted to 0.000288 s⁻¹ and the on-rate (kon) is 24400 M⁻¹ s⁻¹.
The corresponding values for B12 are 6.81 nM, 0.0022 s⁻¹ and 323000 M⁻¹ s⁻¹.
The corresponding values for B13 are 0.489 nM, 0.000256 s⁻¹ and 523000 M⁻¹ s⁻¹.
In the case of B14, the Kd was determined as 2.25 nM, the koff was found to be 0.000698 s⁻¹ and the kon is 311000 M⁻¹ s⁻¹.
In the same order, the values of B15 are 0.612 nM, 0.000152 s⁻¹ and 248000 M⁻¹ s⁻¹.
In the same order, the values of B16 are 1.14 nM, 4.16e-05 s⁻¹ and 36500 M⁻¹ s⁻¹.
For the molecule B17, the Kd came out at 1.84 nM, the koff was determined as 0.000468 s⁻¹ and the on-rate (kon) came to 254000 M⁻¹ s⁻¹.

The target of another assay is T2, ACVR2A mouse Fc fusion protein (mouse, UniProt P27037 20-135 (human entry), limits assumed).
T2 construct: not shown: mouse Fc
T2 sequence (P27037 20-135 limits assumed): as the sequence (P27037 20-135) above
Nature of the assay: Activin A competitive ELISA; ACVR2A mouse Fc coated, antibody titrated, competitor activin A. As to the method:
2.3 Activin A Competitive ELISA. To select ACVR2A hits that could block the interaction between ACVR2A and its ligand Activin A, a competitive ELISA assay was set up. 30 μL 4.17 nM ACVR2A mouse Fc fusion protein was coated in 384-well HB plate at 4° C. overnight following blocking with 5% BSA. Anti-ACVR2A Fab fragment or antibodies with different concentrations were added to the plate and incubated on an orbital shaker at room temperature for 1 hours to allow binding of the antibodies. […] After 5 times washing with TBST, 30 μl of 20 nM goat anti-activin A polyclonal antibody (Abcam, ab7153) in blocking buffer was added into plate and incubated at room temperature for 1 hour. Last, 30 μl of anti-goat IgG-HRP (Beyotime, A0181) in blocking buffer (1:500 dilution) was added to plate for another 30 min incubation following washing step. Luminescence signal was collected on Tecan infinite M1000 after adding 30 μl ECL substrate.
The molecule B18 had an IC50 of 5.04 nM.
Still for that read-out and setting: with B1 the figure was 6.04 nM.
B2 displayed an IC50 of 4.15 nM.
For B3, the IC50 amounted to 4.83 nM.
In the case of B4, the IC50 is 5.3 nM.
Same read-out and setting: the same measure for B5: 5.13 nM.
As to B6, the IC50 was found to be 1.95 nM.
For the molecule B7, the IC50 was 2.07 nM.
As to B8, the IC50 was found to be 4.74 nM.
